Changes are numbered by the printed parent chain. In names and notes the source's numbering stands.
B1: S459A: Bub1 S459A mutation (protein, UniProt O43683 1-1085, looked up, variant S459A)
Mitotic checkpoint …: MDTPENVLQMLEAHMQSYKGNDPLGEWERYIQWVEENFPENKEYLITLLEHLMKEFLDKKKYHNDPRFISYCLKFAEYNSDLHQFFEFLYNHGIGTLSSPLYIAWAGHLEAQGELQHASAVLQRGIQNQAEPREFLQQQYRLFQTRLTETHLPAQARTSEPLHNVQVLNQMITSKSNPGNNMACISKNQGSELSGVISSACDKESNMERRVITISKSEYSVHSSLASKVDVEQVVMYCKEKLIRGESEFSFEELRAQKYNQRRKHEQWVNEDRHYMKRKEANAFEEQLLKQKMDELHKKLHQVVETSHEDLPASQERSEVNPARMGPSVGSQQELRAPCLPVTYQQTPVNMEKNPREAPPVVPPLANAISAALVSPATSQSIAPPVPLKAQTVTDSMFAVASKDAGCVNKSTHEFKPQSGAEIKEGCETHKVANTSSFHTTPNTSLGMVQATPSKVQPAPTVHTKEALGFIMNMFQAPTLPDISDDKDEWQSLDQNEDAFEAQFQKNVRSSGAWGVNKIISSLSSAFHVFEDGNKENYGLPQPKNKPTGARTFGERSVSRLPSKPKEEVPHAEEFLDDSTVWGIRCNKTLAPSPKSPGDFTSAAQLASTPFHKLPVESVHILEDKENVVAKQCTQATLDSCEENMVVPSRDGKFSPIQEKSPKQALSSHMYSASLLRLSQPAAGGVLTCEAELGVEACRLTDTDAAIAEDPPDAIAGLQAEWMQMSSLGTVDAPNFIVGNPWDDKLIFKLLSGLSKPVSSYPNTFEWQCKLPAIKPKTEFQLGSKLVYVHHLLGEGAFAQVYEATQGDLNDAKNKQKFVLKVQKPANPWEFYIGTQLMERLKPSMQHMFMKFYSAHLFQNGSVLVGELYSYGTLLNAINLYKNTPEKVMPQGLVISFAMRMLYMIEQVHDCEIIHGDIKPDNFILGNGFLEQDDEDDLSAGLALIDLGQSIDMKLFPKGTIFTAKCETSGFQCVEMLSNKPWNYQIDYFGVAATVYCMLFGTYMKVKNEGGECKPEGLFRRLPHLDMWNEFFHVMLNIPDCHHLPSLDLLRQKLKKVFQQHYTNKIRALRNRLIVLLLECKRSRK
B2: F629A: Mad1 F629A mutant (protein, UniProt Q9Y6D9 1-718, looked up, variant F629A)
Mitotic spindle assembly …: MEDLGENTMVLSTLRSLNNFISQRVEGGSGLDISTSAPGSLQMQYQQSMQLEERAEQIRSKSHLIQVEREKMQMELSHKRARVELERAASTSARNYEREVDRNQELLTRIRQLQEREAGAEEKMQEQLERNRQCQQNLDAASKRLREKEDSLAQAGETINALKGRISELQWSVMDQEMRVKRLESEKQELQEQLDLQHKKCQEANQKIQELQASQEARADHEQQIKDLEQKLSLQEQDAAIVKNMKSELVRLPRLERELKQLREESAHLREMRETNGLLQEELEGLQRKLGRQEKMQETLVGLELENERLLAKLQSWERLDQTMGLSIRTPEDLSRFVVELQQRELALKDKNSAVTSSARGLEKARQQLQEELRQVSGQLLEERKKRETHEALARRLQKRVLLLTKERDGMRAILGSYDSELTPAEYSPQLTRRMREAEDMVQKVHSHSAEMEAQLSQALEELGGQKQRADMLEMELKMLKSQSSSAEQSFLFSREEADTLRLKVEELEGERSRLEEEKRMLEAQLERRALQGDYDQSRTKVLHMSLNPTSVARQRLREDHSQLQAECERLRGLLRAMERGGTVPADLEAAAASLPSSKEVAELKKQVESAELKNQRLKEVFQTKIQEARKACYTLTGYQIDITTENQYRLTSLYAEHPGDCLIFKATSPSGSKMQLLETEFSHTVGELIEVHLRRQDSIPAFLSSLTLELFSRQTVA
B3: R630A: Mad1 R630A mutant (protein, UniProt Q9Y6D9 1-718, looked up, variant R630A)
Mitotic spindle assembly …: B2 Mitotic spindle assembly … with A629F, R630A

What was measured:
kinetochore = details: cited from earlier work; for kinetochore targeting of F629A / R630A mutants, in words: ref Ji et al, 2017b
Source text: Formation of the Bub1‐Mad1 complex at kinetochores is dependent on phosphorylation of Bub1, a targeting mechanism conserved from yeast to humans (Heinrich et al, [2014]; London & Biggins, [2014a]; Silió et al, [2015]). In S. cerevisiae, phosphorylation of Bub1 at Thr453 and Thr455 by Mps1 promotes an interaction with Mad1^CTD, with pThr455 alone being sufficient for this interaction (London & Biggins, [2014a]; Ji et al, [2017b]). […] Phe629 is a buried hydrophobic residue which contacts Phe629 of the opposite subunit and therefore contributes to the hydrophobic dimerization interface of Mad1^CTD. Phe629 also contributes to the hydrophobic interface of the Bub1^CD1‐Mad1^CTD complex by stacking with Bub1 Phe475 (Fig 3B). […] However, we suspect this could be linked to disruption of the Mad1 conformation sinc ...

[1] = Aggregation of Mad1^CTD mutants; assay type: physicochemical; details: purified Mad1^CTD mutant
Source text: The coding region of Mad1^597–719 was cloned by USER® (NEB) into a modified pRSFDuet‐1 vector (71341‐3, Sigma‐Aldrich) with an N‐terminal double Strep His6‐tag, followed by a tobacco etch virus (TEV) protease cleavage site (Demple & Linn, [1982]; Bitinaite et al, [1992]). Mad1 mutants were generated using the QuikChange™ Lightning Site‐Directed Mutagenesis Kit (Agilent), developed by Stratagene Inc. (La Jolla, CA) (Nøhr & Kristiansen, [2003]). Mad1 constructs were transformed into Rosetta™ 2 (DE3) Singles™ Competent Cells (71400, Novagen) for expression. Expression was induced with 0.5 mM IPTG and grown overnight at 18°C. Cells were lysed in 25 mM HEPES pH 8.1, 250 mM NaCl, 2 mM DTT, 5% glycerol, 2 mM EDTA supplemented with lysozyme, and Complete™ EDTA‐free protease inhibitors (Roche). Proteins were purified over a Strep‐Tactin Superflow Plus column (QIAGEN) and cleaved with TEV protease overnight at 4°C. […]
Size exclusion chromatography coupled with multi‐angle static light scattering (SEC‐MALS) was performed using an Agilent 1200 series LC system with an online Dawn Helios ii system (Wyatt) equipped with a QELS+ module (Wyatt) and an Optilab rEX differential refractive index detector (Wyatt). […] The molecular masses were analysed with ASTRA 7.3.0.11 (Wyatt). […]

| Molecule | Mad1 kinetochore recruitment by Bub1 S459A, in words (kinetochore; ref Zhang et al, 2017) | kinetochore targeting of F629A / R630A mutants, in words (kinetochore) | aggregation, in words [1] |
| --- | --- | --- | --- |
| B1 | inactivates Bub1‐mediated Mad1 kinetochore recruitment |  |  |
| B2 |  | defective in kinetochore targeting | had a propensity to aggregate |
| B3 |  | defective in kinetochore targeting |  |
